According to a protein production outcome set (Wang et al. 2014):

Test: label from the status in PepcDB records

Row | Sequence | protein production
1 | TTHKFEHPLNEKTRIYLRVESLLRQAHLASGFADNHQYQLFFRALFDMVEIFEQIQLKSELAKDLEKQRLSYRHWLNVEGVDQEALNSLLNEIDVVHSQLMGAERFGQALKEDRFLSSIRQRFNLPGGSCCFDLPALHYWLHLPIERKKHDANQWQKSLKPLSDALTLWLKLARETGHFKAQIARAGFFQSDADEANILRLHIPMKYGVYPMISGHKNRFAIKFMAFENGQACSQDVEFELAVC | not failed
2 | MRLKKQLLGSLLVVIVVLSIAVATTKQQKGFVTGQPTGALNLSDILDSEELGEYHLMSAAIITGNTVDFSGLGAGPDDPFEIASITKIFTGELLRLQIERGEITESTAVGDVLGERVADSLIRDITVEELANHTSGLPRLGNVGLRPFMATFFDKNPYKDLSADRVISISTTSKLNSRGEFHYSNLGFALLGQVLARNAGLTFDQLLDRDLLAPLNLNNTKLMTPESLAQDAPQGFSTPGKQVEAWEMDGFLPAAGLRSTARDMAVFCQYLFTKGPAPFTWQSLESAPEIVWHNGESFGYSSVLFFNTATTTAIFVAADVATSVFPIGHELLMANSTRQESK | failed
3 | MKRIAFVGSVGAGKTTLFNALQGNYTLARKTLAVEFNDKGDIDTPGEYFSHPRWYHALITTLQDVDMLIYVHGANDPESRLPAGLLDIGVSKRQIAVISKTDMPDADVAATRKLLLETGFEEPIFELNSHDPQSVQQLVDYLASLTKQEEAGEKTHHSELEHHHHHH | not failed
4 | MLDLAAPFFLLLLPLPFLVRRFLPPHAAQEGALYLPEAFAAAARPTSAFARSERWEGALRAILWLALVLALAGPERLKAVPDLSASGREIVLTLDMSGSMLIEDFDIDGVQSTRLEAVKRVARSFVEERQGDRIGLVLFANRAYVAAPLTFDLAAVGRAIEEASIGITGRSTAIADGLGLALKSVTESSAASRVIVLLSDGQDNAHQIDARQVAGLAARHGVRIHTIALGPDDLETRPAARDAVDTATLRAIAEASGGRSYRVRGMEDLRAMAADLDRLEPNPAERPPVLVPEPLWPWPALLALGAALVLGLRRAGLAPWPRRAGRAA | failed
5 | MQNRWAETKFDSDIDEVVYGSRLIGSDPDLVLHGGGNTSVKTTERDHAGRIISVLRVKNSGSNLGTIDSRGFTGIRMDDALAAAKIDKMTDEAMVDYLKKSMVNPSEPSPSVETFLHAFLPYKFVMHSHADAILSITNTDLPSDQIAKILGNVVVLPYIPPGFTLAKEVMNCFKKGIDGIVLRKHGLLTFGDTGKEAYDRHINIVSRAENFIREKTDGK | not failed
6 | MTDYASLLMSLTSGSALDSGCMEQLIQEGLYVTPALFSVDRAALWVLDKDEQAYLCEADFFDGMIDHRSSQRLTKKEDAELFSFLESTSEIIINNYFTYESFGLNTSRILSRFQLCSLLLIPLQIKGENRGFIFLGDSQKNIEWSPDVLFASRILVQLFERALLALDNSVAETKLQHQYQLMSEIEKLAK | failed
7 | MSLVNNFTVKKVRSSNLELLRLLSMFFVLVVHADFQALGMPDRTEMTILPLFSVFRIIIEAFAIVCVNSFVLLSGWFGINFHIKSLCNLLFQCAFFLIGIYTFTILIGIEPLSISGIKRCLMLTNNVWFVKCYLGMFIMAPILNAFVEKTDKRTFSTVLLSFFIFQTIYGWFSNGAPYFEKGYSAFSFMGLYLLARYVRIYQPSYTQWSKSKNLLMYISLSTFTALMLIITCYFDKVGYFCMFWTYTSPLVIAGALYLLLFFNRFAFQNKGINWIAASCFAVYLFHFFIWEYFMKPHIQQLAVTYNGISCLLVITGLLLTFFTAAILIDKIRLYIWNHFVSKYIS | failed
8 | MASPATFQFSRTKLNLQINLVERKSPSKLSFPLLFRDQAKSTPIRFPVIRASSSSSASNHKPSLLKTTFISLTAAAALFSASFYFVNKRAAMTPVAVVETTLEKHLETQSNDVNALSLLTEIKFKSDKHEQAIVFLDRLIEIEPYERKWPAMKARILSYHGKSESAIEAFEEILEKDPIRVDAYHYLVMEYYNSKPKLTEIEKRINKVIRRCKKEKKTKEILGFRMLIAQIRFIEGKSVEAIRICEELVKEDPNDFTIYLFQGVVYTLMNKGEEAAKQFEHVARVIPRNHPSRETAARTTNSNEWRVIVAYDNVYCYLSTFARLSMASLFNKFG | failed
9 | TNDEETIQQQILALSADKRNFLRDPPAGVQFNFDFDQMYPVALVMLQEDELLSKMRFALVPKLVKEEVFWRNYFYRVSLIKQSAQLT | not failed
10 | MSRSGQPPDLKKYMDKKLQIKLNANRMVVGTLRGFDQFMNLVVDNTVEVNGDDKTDIGMVVIRGNSIVTVEALEPVGRS | failed
11 | MAGKKVVITIGRQYGSGGADTGRRLAEELGFGFYDKNILRMNSDESGIKESYFHLADEKAGNKLLYKIISSLTPEKGAPSFGSDLISADNLFRFQSEVIRKLAAEESCVIIGRCANYVLDGMEGLLRVYLYADIEVREARIREKDLYDEKEVLKNIKRIDRERRDYHRYYTGRDWQELDNYDLVINTTHIGVDGAVAVIKNYLTVMGYDLEKDFH | not failed
12 | MTVQTAIFDLIKQAKTIIIHRHQRPDPDAIGSQLGLAAIIKASFPAKRVLTPGKQYHGFDWLGQMDEVTEADYQDALVLILDTANQPRIDGELWNQGKTIVKIDHHPNDDAFGDPQWVDVDASSTSEMIYNWYAPLAAELTLTANAARLLYAGIVGDTGRFLYSATKPSTMRAAAALMEAGADAEAVNRIEDTITLPVARLSAYVYEHLTQLDSGAAYVILTNAILDSFAIGDASTAGVVPLPGRIDTVKCWAIFVQQKEGDFRIRLRSKGPSINGVAKNHDGGGHALASGAKAKDQQEIETVVRELDQVASQYEKEVLEHHHHHH | failed
13 | MIILKGNKIDYLFLLFGLLGLSTMIYSYLSFSLDVISRNSCTINSVISCSSVENSIYSTFLGIKLYYYGMAYFSAIIVLSLLVVKGTVKNIIGYVISLLSIIASIISVYLIYTEIFLLGHMCIVCTLAHVSIFSVLILSVIKFKV | failed
14 | ASRDLLKEFPQPKNLLNSVIGRALGISHAKDKLVYVHTNGPKKKKVTLHIKWPKSVEVEGYGSKKIDAERQAAAAACQLFKGWGLLGPRNELFDAAKYRVLADRFG | not failed
15 | KNIVVDFTEYNPLHNGHKYCMDFGKSEGLFISVIPGPLERSGRGIPYLVNRHIRAEMALLAGADLVVEGPPMGIMGSGQYMQCLIKIFSALNGDIIPRGYIEEETMERVINSINNGNHIKIKPYNISCIETREKLGEKLEIDNYVIASMSYTIYKLKENFPKWNPKFKFIERIEGISGTKIREGVFNNNFESIKHMLPITTIDVFKNFGDNLSEIILKRNEEMVLDTVNNFDLNKYLPENISEKLNEKEYYESIE | not failed
16 | MADSKEKLFSDFPAVSTEQWMEKITADLKGADFEKKLVWRTNEGFKVKPFYRQEDLEGLKTTEGLPGEFPYVRGTKKNDNTWFVRQEIKVECPKEANAKALDILNKGVDSLGFYVKKKDLSPEYIETLLNDICAECIELNFSTCQGHTVELAKLLVAYFQKKGYDLTKLQGSVNYDPMGKMMVKGKDLSNFITTAKELVEVLAPLPKFRCICVNAIELNNAGSYISQELGYALAWGNEYLSKLVEAGVPAALAAKKIKFNFGISSNYFLEIAKFRAARMLWADIVKEYHPQCNRQPECPNKAEDGTCLCACKMVAHAETSTFNLTLFDAHVNLLRTQTEAMSAALAGVNSITVTPFDKTYETPDDFSERIARNQQLLLKEECHFNKVVDPAAGSYFIENLTISIATQAWELFLKVEDEGGMLEAVKAGKVQEAINASNKARHDSVSKRKEILLGTNQYPNFNEKAGEKAPVEAKCCCGGNHDSCEKPFATLNFDRAASQFEALRLQTEKSGKRPKAFMLTIGNLAMRQARAQFSCNFLACAGYEVIDNLGFPTVEAGVEAAMKAGADIVVICSSDDEYAEYAIPAFKALDGRAIFIVAGAPACMEELKAAGIENFIHVRVNVLDTLKEYNAKLGIK | failed
17 | MKEGIELNTKKRIIGLDFARALAMFGMLLVNFMVITGAEGNGPPFLITLMSLFEGRASALFVILAGIGISLMTRSSVARNEKIKISNSRKIIWKRALFLFILGLLLYVMEWTGDILHYYGVYLFVAALLITVRKKALLFLSIIILLLAQSLQLTFNAFEGWGGPTPFINYVDFWTVNGFLRNLFFNGYHPFSHRFSFFLIGMIIGRLDLHNKKIRDRLLLLGITFTILIELLSKGLTYYFIPHIGKAAATFLFNTGPVLPNVLYILSATGSAIAILILCLYITEKYENNWFVTSIIQTGQLTLTHYVSHVFIGIGTLILFNRMEHQTLLFVLLFATVFFIFSILFSVLWRKKFSRGPIEWIMRKLAS | not failed
18 | MKLENQSETTANIQLNAPELVEANIAEVTSITIEKFLGSFTSVTRLLLNLSPLKNFHKDGLVSGKWNEPKDVPECLLSQLETFVWRRLDWGREEEKEIATYILKNGRRLKKETFTTNPIESEGLNKLKERLKVLNGLDGVQAPLFRKDGVVVGKWNQPKNVPQCLLSHLETFVWTRYRWEREEEKEEATYILKNARLLSKATFSTNIIDLKEFHWFKK | failed
19 | MATAPRPLREQYLHFQPISTRWHDNDIYGHVNNVTYYAFFDTAVNTYLIERGGLDIQGGEVIGLVVSSSCDYFAPVAFPQRIEMGLRVARLGNSSVQYELALFLEGQREACAAGRFVHVFVERRSSRPVAIPQELRDALAALQSSAQ | not failed
20 | EKGDWAQFGRYAEANKTVKVPSNVVFMGNSITDGWWPADSTFFIRNNFVDRGISGQTTSEMLVRFRQDVINLKPKAVVILAGINDIAHNNGVIALENVFGNLVSMAELAKANHIKVIFCSVLPAYDFPWRPGMQPADKVIQLNKWIKEYADKNGLTYVDYHSAMKDERNGLPANLSKDGVHPTLEGYKIMEKIVLEAIHKTVK | not failed
21 | MEVTLLGTGDTTGTPTVQCDCDTCERARDPDEELRANVRERGIDPTGGVERSRFSVAVENDTTGESLLVDLSPDFRHQFLRESVPLPDAAIITHIHFDHLDGLGNAYRLFDELPVHAADETDPVTDESVAEAVRSRYDYLDTVSVHAQTPLEPFTVAGFEVTLVPVTHPPLLCYGLRIEEPQTGAVLSISGDTCYDVPDRSKSVLTGADLALVEGIVHPEACEYHPKGGTHHNEDGVPRTFGTKHMTLPGARDFAADIEADDYRIVHTAHYVPADRAFADDIGLDGEQFML | failed
22 | MSGARNVEQWQDFIGSCLDFRPADGVFRIARDMFTEPELFDLEMELIFEKNWIYACHESELPNNHDFITMRAGRQPMIITRDGEGRLNALVNACQHRGTTLTRVGKGNQSTFTCPFHAWCYKSDGRLVKVKAPGEYDEGFDKATRGLKKARIESYKGFVFISLDVAADNSLEDFLGDARIFFDMMVAQSPDGELEVLPGKSAYTYDGNWKLQNENGLDGYHVSTVHYNYVATVQHRQQVNADSGAGSSATLDYSKLGAGDASTDDGWFAFENGHSVLFSEMPNPAVRSGYASIMPRLVAEHGQAKAEWMMHRLRNLNIYPSLFFLDQISSQLRIIRPIAWNKTEIISQCIGVKGESDADRENRIRQFEDFFNVSGMGTPDDLVEFREAQRGFQGRLERWSDISRGRQHWVSGPTANSENLGIQPAMTGTEITHEGLYVNQHRNWQKFLLDGLQRRPLKLREV | failed
23 | MKITFISGQEVSLGTSFLLFSKKIVMNELNQPLLAIIKNVAKTKNLSIEEVVFCLKTALEQAYKKHLNFVNVEVNINFDKGIINVEQLFNVVSDENEDYDDFLEIPLQAANKINSSLQLGDVLRKPIPLKNISSDLINKMIAIFNQKISETNFKAVMSEFSSEVGEVIEAKVEDIDTNKEGGLKGYIINLETTKGYISKRELSKGERLEIGKKYLFVIKEIQRQASLWPITLSRSDTRLLQFLLTSNTPEIENGTIVIKKIERSPGVKSKIAVISNDPAVDPVAAILGPKGEKIRGISEEFNGEIIDIVFWNEDKLKFLINAILPAEVIGYNILQDDERDTSIEVVVPANQIANVFGFKGVNIRLISNLTGWNSVDVYSEKDASEANIKFTRLSFEPEGLFGIKKRREKIISNDATDKVFYTSKDNVIDDEIIVDLAKDLMVDNKQKQPEQVAKQVVEKSQLEKQVTPKEKEKVQPKAKVHSNSHSKKPAKPNQIFSITVDASDKNLKKDQVDNNQTNPQTKQTFDSFDDL | failed
